Measured values: patent US20110002929A1

Target: human RANK-L (human) (UniProt O14788)
Assay: cell-based or functional assay

Chain of human RANK-L (human) (O14788 140-317 limits assumed): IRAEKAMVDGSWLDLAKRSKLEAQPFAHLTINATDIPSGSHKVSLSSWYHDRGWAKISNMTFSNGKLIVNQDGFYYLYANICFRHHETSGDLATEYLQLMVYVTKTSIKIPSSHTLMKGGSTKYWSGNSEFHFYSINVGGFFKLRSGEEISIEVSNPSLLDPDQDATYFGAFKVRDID

## osteoprotegerin (from UniProt O00300 22-401) (receptor)
  RANK-L induced NF-kappaB activation (luciferase reporter, HEK293T cells), IC50: 6.03 nM
